Laboratory results as given in the RNAGym collection of RNA variant scans (doi:10.1101/gr.219683.116).

B1: mRNA-splicing (parent)
chain: AGUUGCUGCUGGGAGCUCCAGCACAGUGAAAUGGACAGAAGGGCAGAGCAA

Variants of: B1
Test: exon inclusion enrichment index; higher = more inclusion; WT1 exon 5 minigene, HEK293

In order of rising “exon inclusion enrichment index” value:
1. AGUUGCUGGAGGGAGCUCCAGCACAGUGAAAUGGACAGAAGGGCAGAGCAA [C9G U10A]  0.0101
2. AGUUGCUGGGGGGAGCUCCAGCACAGUGAAAUGGACAGAAGGGCAGAGCAA [C9G U10G]  0.0139
3. AGUUGCUGUAGGGAGCUCCAGCACAGUGAAAUGGACAGAAGGGCAGAGCAA [C9U U10A]  0.0452
4. AGUUGCUAGUGGGAGCUCCAGCACAGUGAAAUGGACAGAAGGGCAGAGCAA [G8A C9G]  0.0723
5. AGUUGCUGGUGGGAGCUCCAGCACAGUGAAAUGGACAGAAGGGCAGAGCAA [C9G]  0.154
6. AGUUGCGGCUGGGAGCUCCAGCACAGUGAAAUGGACAGAAGGGCAGAGCAA [U7G]  0.183
7. AGUUGCUCUUGGGAGCUCCAGCACAGUGAAAUGGACAGAAGGGCAGAGCAA [G8C C9U]  0.216
8. AGUUGCUGGCGGGAGCUCCAGCACAGUGAAAUGGACAGAAGGGCAGAGCAA [C9G U10C]  0.22
9. AGUUGCUUUUGGGAGCUCCAGCACAGUGAAAUGGACAGAAGGGCAGAGCAA [G8U C9U]  0.3
10. AGUUGCUAUUGGGAGCUCCAGCACAGUGAAAUGGACAGAAGGGCAGAGCAA [G8A C9U]  0.355
11. AGUUGCUCAUGGGAGCUCCAGCACAGUGAAAUGGACAGAAGGGCAGAGCAA [G8C C9A]  0.365
12. AGUUGCUAAUGGGAGCUCCAGCACAGUGAAAUGGACAGAAGGGCAGAGCAA [G8A C9A]  0.383
13. AGUUGCUUAUGGGAGCUCCAGCACAGUGAAAUGGACAGAAGGGCAGAGCAA [G8U C9A]  0.386
14. AGUUGCUUGUGGGAGCUCCAGCACAGUGAAAUGGACAGAAGGGCAGAGCAA [G8U C9G]  0.455
15. AGUUGCUGCUCAGAGCUCCAGCACAGUGAAAUGGACAGAAGGGCAGAGCAA [G11C G12A]  0.472
16. AGUUGCUGUGGGGAGCUCCAGCACAGUGAAAUGGACAGAAGGGCAGAGCAA [C9U U10G]  0.493
17. AGUUGCUCUCGGGAGCUCCAGCACAGUGAAAUGGACAGAAGGGCAGAGCAA [G8C C9U U10C]  0.579
18. AGUUGCUGCUAGGAGCUCCAGCACAGUGAAAUGGACAGAAGGGCAGAGCAA [G11A]  0.618
19. AGUUGCUGCAGGGAGCUCCAGCACAGUGAAAUGGACAGAAGGGCAGAGCAA [U10A]  0.633
20. AGUUGCUGCUAAGAGCUCCAGCACAGUGAAAUGGACAGAAGGGCAGAGCAA [G11A G12A]  0.676
21. AGUUGCUGAGGGGAGCUCCAGCACAGUGAAAUGGACAGAAGGGCAGAGCAA [C9A U10G]  0.829
22. AGUUGCUCGUGGGAGCUCCAGCACAGUGAAAUGGACAGAAGGGCAGAGCAA [G8C C9G]  0.884
23. AGUUGCUGCUAUGAGCUCCAGCACAGUGAAAUGGACAGAAGGGCAGAGCAA [G11A G12U]  0.888
24. AGUUGCUGAAGGGAGCUCCAGCACAGUGAAAUGGACAGAAGGGCAGAGCAA [C9A U10A]  0.914
25. AGUUGCGGAAGGGAGCUCCAGCACAGUGAAAUGGACAGAAGGGCAGAGCAA [U7G C9A U10A]  1
26. AGUUGCUACUGGGAGCUCCAGCACAGUGAAAUGGACAGAAGGGCAGAGCAA [G8A]  1.09
27. AGUUGCUUCUGGGAGCUCCAGCACAGUGAAAUGGACAGAAGGGCAGAGCAA [G8U]  1.2
28. AGUUGCUCCUGGGAGCUCCAGCACAGUGAAAUGGACAGAAGGGCAGAGCAA [G8C]  1.33
29. AGUUGCUGUUGGGAGCUCCAGCACAGUGAAAUGGACAGAAGGGCAGAGCAA [C9U]  1.36
30. AGUUGCUGCUCCGAGCUCCAGCACAGUGAAAUGGACAGAAGGGCAGAGCAA [G11C G12C]  1.58
31. AGUUGCUGCCCGGAGCUCCAGCACAGUGAAAUGGACAGAAGGGCAGAGCAA [U10C G11C]  1.66
32. AGUUGCUGCCAGGAGCUCCAGCACAGUGAAAUGGACAGAAGGGCAGAGCAA [U10C G11A]  1.76
33. AGUUGCUGCGGGGAGCUCCAGCACAGUGAAAUGGACAGAAGGGCAGAGCAA [U10G]  1.82
34. AGUUGCUGCUACGAGCUCCAGCACAGUGAAAUGGACAGAAGGGCAGAGCAA [G11A G12C]  1.9
35. AGUUGCGUCUGGGAGCUCCAGCACAGUGAAAUGGACAGAAGGGCAGAGCAA [U7G G8U]  1.91
36. AGUUGCGGAUGGGAGCUCCAGCACAGUGAAAUGGACAGAAGGGCAGAGCAA [U7G C9A]  1.94
37. AGUUGCUGAUGGGAGCUCCAGCACAGUGAAAUGGACAGAAGGGCAGAGCAA [C9A]  1.96
38. AGUUGCGGACGGGAGCUCCAGCACAGUGAAAUGGACAGAAGGGCAGAGCAA [U7G C9A U10C]  2
39. AGUUGCGACUGGGAGCUCCAGCACAGUGAAAUGGACAGAAGGGCAGAGCAA [U7G G8A]  2.02
40. AGUUGCUGCAAGGAGCUCCAGCACAGUGAAAUGGACAGAAGGGCAGAGCAA [U10A G11A]  2.02
41. AGUUGCGCCUGGGAGCUCCAGCACAGUGAAAUGGACAGAAGGGCAGAGCAA [U7G G8C]  2.05
42. AGUUGCUGCUCGGAGCUCCAGCACAGUGAAAUGGACAGAAGGGCAGAGCAA [G11C]  2.05
43. AGUUGCUGCCUGGAGCUCCAGCACAGUGAAAUGGACAGAAGGGCAGAGCAA [U10C G11U]  2.21
44. AGUUGCUGCGAGGAGCUCCAGCACAGUGAAAUGGACAGAAGGGCAGAGCAA [U10G G11A]  2.34
45. AGUUGCUGCGUGGAGCUCCAGCACAGUGAAAUGGACAGAAGGGCAGAGCAA [U10G G11U]  2.4
46. AGUUGCUGUCGGGAGCUCCAGCACAGUGAAAUGGACAGAAGGGCAGAGCAA [C9U U10C]  2.55
47. AGUUGCUGACGGGAGCUCCAGCACAGUGAAAUGGACAGAAGGGCAGAGCAA [C9A U10C]  2.65
48. AGUUGCUGCCGGGAGCUCCAGCACAGUGAAAUGGACAGAAGGGCAGAGCAA [U10C]  2.72
49. AGUUGCUGCAUGGAGCUCCAGCACAGUGAAAUGGACAGAAGGGCAGAGCAA [U10A G11U]  2.73
50. AGUUGCUGCACGGAGCUCCAGCACAGUGAAAUGGACAGAAGGGCAGAGCAA [U10A G11C]  2.77
51. AGUUGCUGCGCGGAGCUCCAGCACAGUGAAAUGGACAGAAGGGCAGAGCAA [U10G G11C]  2.98
